The source of these data is patent publication US20100233154A1 (AstraZeneca / MedImmune, published 2010).

Sequences and labels used below:
B1: monoclonal antibody 15A1.2 (antibody, V domains shown)
VH: QVQLVQSGAEVKKPGASVKVSCKVSGYTLTELSMHWVRQAPGKGLEWMGGFDPEDGETIFAQKFQGRVTMTEDTSTDTAYMELSSLRSEDTAVYYCATGLRFLEWFLWGWDVWGQGTTVTVSS
VL: DIQMTQSPSSVSASVGDRVTITCRASQGISNWLAWYQQTPGKAPQLLIYGASSLQSGVPSRFSGSGSGTDFTLTISSLQPEDFATYYCQQADSFPPTFGQGTKVEIK
notes: Fully human (XenoMouse) antibody; also called ATCC PTA-9491
B2: monoclonal antibody 14H12.3 (antibody, V domains shown)
VH: QVQLVESGGGVVQPGRSLRLSCAASGFTFSSYGMHWVRQAPGKGLEWVAVIWYDGSNKDYADSVKGRFTISRDNSKNTLYLQMNSLRAEDTAVYYCAREGSTSWTDYYGMDVWGQGTTVTVSS
VL: SYELTQPPSVSVSPGQTARITCSGDALPKRYAYWYQQKSGQALVLVIYEDSKRPSGIPERFSGSSSGTMATLTISGAQVEDEADYYCYSIDSSGNHGVFGGGTKLTVL
notes: Fully human (XenoMouse) antibody
B3: monoclonal antibody 16E1.1 (antibody, V domains shown)
VH: QVQLQESGPGLVKPSQTLSLTCTVSGGSISSGGYYWSWIRQHPGKGLEWIGFIYYSGSTFYNPSLKSRITISVDTSKNQFSLKLSSVTAADTAVYYCARPYSSSWYGAFDIWGQGTMVTVSS
VL: SYELTQPPSVSVSPGRTASITCSEDKLGNKYAYWYQQKPGQSPVLVIYQDSERPSGIPERFSGSNSGNTATLTISGTQAMDEADYYCQAWDSSTVVFGGGTKLTVL
notes: as for B2
B4: monoclonal antibody 7B9.1 (antibody, V domains shown)
VH: QVQLVESGGGVVQPGRSLRLSCAASGFTFSSYGMHWVRQAPGKGLEWVAVIWYDGSNKYYADSVKGRFTISRDNSKNTLYLQMNSLRAEDTAVYYCAREGAPYSSSDAFDIWGQGTMVTVSS
VL: QSVLTQPPSVSGAPGQRVTISCTGSSSNIGANYDVHWYQQLPGTAPKLLIYGDNNRPSGVPDRFSGSKSGTSASLAITGLQAEDEADYYCQSYDSSLSGSVFGGGTKLTVL
notes: as for B2
B5: monoclonal antibody 15A11.1 (antibody, V domains shown)
VH: QVQLVQSGAEVKKPGASVKVSCKVSGDTLTELSMHWVRQTPGKGLEWMGGFDPEDGETIYAQKFQGRVTMTGDTSTDTAYMELSSLRSEDTAVYYCATEGDYGDSEEYYYYYGMDVWGQGTTVTVSS
VL: DIQMTQSPSSLSASVGDRVTITCRASQGISNYLAWYQQKPGKVPKLLIYAASTLQSGVPSRFSGSGSGTDFTLTISSLQPEDVATYYCQKYNRAPFTFGPGTKVDIK
notes: Fully human (XenoMouse) antibody; also called ATCC PTA-9490
B6: monoclonal antibody 10E9.1 (antibody, V domains shown)
VH: QVQLVQSGAEVKKPGASVKVSCKVSGYSLTELSIHWVRQAPGKGLEWMGGFDPEDGEIIFAQKFQGRVTLTEDISLDTAYMEVSSLRSEDTAVYYCATEGHDSGDYVGYYYYGLDVWGQGTTVTVSS
VL: B5 VL with G28D, S30R, Y32F, V43L, T85S, K90S, Y91H, R93S, A94V, K107R
notes: Fully human (XenoMouse) antibody; also called mAb 10E9.1; ATCC PTA-9489
B7: monoclonal antibody 16G1.1 (antibody, V domains shown)
VH: QVQLVESGGGVVQPGRSLRLSCAASGFTFSSYGMHWVRQAPGKGLEWVAVIWYDGSNKYYADSVKGRFTISRDNSKNTLNLQMNSLRAEDTAVYYCGRDPGTYHYYYHGMDVWGQGTTVTVSS
VL: YIVMTQSPLSLPVTPGEPASISCRSSQSLLHSNGYNFLDWYLQKPGQSPQLLIYLGSNRASGVPDRFSGSGSGTDFTLKINRVEAEDVGVYYCMQALQTPITFGQGTRLEIK
notes: as for B2

Substitutions are numbered along the chain they refer to.

For one assay, the target named is T1, recombinant human heparanase (active, 8 and 50 kDa sub-units, from baculovirus-infected Hi5 cells) (human, UniProt Q9Y251 36-109; Q9Y251 158-543).
T1 sequence (looked up) 1: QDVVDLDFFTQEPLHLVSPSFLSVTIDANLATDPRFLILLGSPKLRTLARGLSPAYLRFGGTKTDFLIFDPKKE
T1 sequence (looked up) 2: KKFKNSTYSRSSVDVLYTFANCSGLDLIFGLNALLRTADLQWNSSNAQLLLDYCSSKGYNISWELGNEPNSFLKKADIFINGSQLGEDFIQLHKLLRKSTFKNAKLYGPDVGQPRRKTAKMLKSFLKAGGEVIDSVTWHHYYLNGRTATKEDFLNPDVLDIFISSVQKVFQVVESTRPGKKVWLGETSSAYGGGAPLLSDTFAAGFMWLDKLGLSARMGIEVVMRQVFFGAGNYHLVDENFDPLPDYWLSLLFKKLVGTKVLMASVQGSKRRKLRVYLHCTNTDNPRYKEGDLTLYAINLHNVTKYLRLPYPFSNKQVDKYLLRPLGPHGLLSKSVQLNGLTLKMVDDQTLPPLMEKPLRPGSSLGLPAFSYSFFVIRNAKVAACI
The assay can be described thus: cell-based or functional assay.
Consider B1, for which the “Inhibition of recombinant human heparanase %, Assay 1” value came to 81% and the “Inhibition of recombinant human heparanase %, Assay 2” value is 91%.

B2: the “Inhibition of recombinant human heparanase %, Assay 1” value worked out at 58% and the “Inhibition of recombinant human heparanase %, Assay 2” value worked out at 85%.

As for B3, the “Inhibition of recombinant human heparanase %, Assay 1” value worked out at 40% and the “Inhibition of recombinant human heparanase %, Assay 2” value stood at 51%.

As for B4, the “Inhibition of recombinant human heparanase %, Assay 1” value was 63% and the “Inhibition of recombinant human heparanase %, Assay 2” value was determined as 54%.

In the case of B5, the “Inhibition of recombinant human heparanase %, Assay 1” value turned out to be 75% and the “Inhibition of recombinant human heparanase %, Assay 2” value is 87%.

In the case of B6, the “Inhibition of recombinant human heparanase %, Assay 1” value worked out at 88% and the “Inhibition of recombinant human heparanase %, Assay 2” value worked out at 99%.

Regarding B7, the “Inhibition of recombinant human heparanase %, Assay 1” value worked out at 44% and the “Inhibition of recombinant human heparanase %, Assay 2” value is 53%.

The target in the next assay is T1, recombinant human heparanase (active, 8 …). Nature of the assay: ELISA, hybridoma supernatant on directly coated recombinant human heparanase.
For the molecule B1, the “OD, binding to direct coated heparanase” value amounted to 0.08 OD units.

On to B2, for which the “OD, binding to direct coated heparanase” value stood at 3.69 OD units.

B3: the “OD, binding to direct coated heparanase” value amounted to 0.15 OD units.

With B4, the “OD, binding to direct coated heparanase” value turned out to be 3.78 OD units.

For B5, the “OD, binding to direct coated heparanase” value is 0.07 OD units.

Turning to B6, the “OD, binding to direct coated heparanase” value is 0.2 OD units.

On to B7, for which the “OD, binding to direct coated heparanase” value is 3.63 OD units.

In another assay the target is T2, cynomolgus heparanase (cynomolgus, UniProt A0A2K5UQU0 87-593).
T2 construct: also called recombinant cynomolgus heparanase
T2 sequence: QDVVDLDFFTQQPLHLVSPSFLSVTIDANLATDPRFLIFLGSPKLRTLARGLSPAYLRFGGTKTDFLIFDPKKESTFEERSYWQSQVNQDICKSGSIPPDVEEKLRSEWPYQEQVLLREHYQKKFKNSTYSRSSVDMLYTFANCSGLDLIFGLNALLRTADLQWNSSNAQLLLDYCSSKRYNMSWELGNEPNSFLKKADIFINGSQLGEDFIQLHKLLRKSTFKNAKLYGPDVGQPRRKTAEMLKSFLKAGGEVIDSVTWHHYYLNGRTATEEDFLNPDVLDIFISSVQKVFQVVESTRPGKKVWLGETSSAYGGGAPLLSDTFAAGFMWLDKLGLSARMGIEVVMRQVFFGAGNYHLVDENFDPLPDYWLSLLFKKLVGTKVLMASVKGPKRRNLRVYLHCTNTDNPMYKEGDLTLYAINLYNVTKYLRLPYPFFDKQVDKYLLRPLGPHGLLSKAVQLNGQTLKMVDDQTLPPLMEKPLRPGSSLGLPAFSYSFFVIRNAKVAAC
Nature of the assay: cross species capture ELISA, heparanase captured by rabbit anti-heparanase antibody, exhaustive supernatant 1:5, anti-human IgG Fc detection. The protocol: (§1) Initially, cross species binding to human, murine and cynomolgus heparanase was determined in an ELISA assay in which heparanase was captured onto plates using a rabbit anti-heparanase antibody (Raybiotech, Cat. IP-14-155). Exhaustive supernatants were added to the plates at a final dilution of 1:5 and bound antibody detected with a rabbit anti-human IgG Fc.
As to B2, the “OD, binding to heparanase (Cyno)” value turned out to be 0.95 OD units.

Consider B3, for which the “OD, binding to heparanase (Cyno)” value came out at 1.66 OD units.

For B4, the “OD, binding to heparanase (Cyno)” value was 1.06 OD units.

On to B5, for which the “OD, binding to heparanase (Cyno)” value stood at 0.14 OD units.

B6: the “OD, binding to heparanase (Cyno)” value amounted to 1.4 OD units.

For the molecule B7, the “OD, binding to heparanase (Cyno)” value worked out at 1.64 OD units.

The next assay deals with T3, murine heparanase (murine, UniProt Q6YGZ1 28-535, limits assumed).
T3 construct: also called Mouse; recombinant murine heparanase
T3 sequence (looked up): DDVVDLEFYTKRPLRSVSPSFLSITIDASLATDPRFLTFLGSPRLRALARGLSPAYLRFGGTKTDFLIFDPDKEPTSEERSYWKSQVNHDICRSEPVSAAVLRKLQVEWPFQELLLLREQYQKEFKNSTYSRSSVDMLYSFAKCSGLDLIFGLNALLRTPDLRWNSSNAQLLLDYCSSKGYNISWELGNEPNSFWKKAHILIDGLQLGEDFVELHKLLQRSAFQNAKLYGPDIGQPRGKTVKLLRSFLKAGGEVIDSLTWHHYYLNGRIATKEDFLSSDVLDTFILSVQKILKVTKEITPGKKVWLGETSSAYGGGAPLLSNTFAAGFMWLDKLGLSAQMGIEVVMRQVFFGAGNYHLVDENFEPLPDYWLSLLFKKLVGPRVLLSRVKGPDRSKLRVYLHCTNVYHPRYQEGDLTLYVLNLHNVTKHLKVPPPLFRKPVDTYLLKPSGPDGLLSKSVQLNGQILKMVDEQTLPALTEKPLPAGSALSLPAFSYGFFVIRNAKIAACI
The assay is described as above. As to the method: as §1
With B1, the “OD, binding to heparanase (Mouse)” value came to 0.14 OD units.

As to B2, the “OD, binding to heparanase (Mouse)” value was 0.14 OD units.

With B3, the “OD, binding to heparanase (Mouse)” value turned out to be 0.63 OD units.

Turning to B4, the “OD, binding to heparanase (Mouse)” value is 0.58 OD units.

Take B5: the “OD, binding to heparanase (Mouse)” value worked out at 0.17 OD units.

As to B6, the “OD, binding to heparanase (Mouse)” value came out at 0.49 OD units.

Take B7: the “OD, binding to heparanase (Mouse)” value came to 0.61 OD units.

The target of the next assay is T4, human heparanase as used in the cross species capture ELISA (human, UniProt Q9Y251 36-543, limits assumed).
T4 construct: Captured on plates by a rabbit anti-heparanase antibody
T4 sequence (looked up): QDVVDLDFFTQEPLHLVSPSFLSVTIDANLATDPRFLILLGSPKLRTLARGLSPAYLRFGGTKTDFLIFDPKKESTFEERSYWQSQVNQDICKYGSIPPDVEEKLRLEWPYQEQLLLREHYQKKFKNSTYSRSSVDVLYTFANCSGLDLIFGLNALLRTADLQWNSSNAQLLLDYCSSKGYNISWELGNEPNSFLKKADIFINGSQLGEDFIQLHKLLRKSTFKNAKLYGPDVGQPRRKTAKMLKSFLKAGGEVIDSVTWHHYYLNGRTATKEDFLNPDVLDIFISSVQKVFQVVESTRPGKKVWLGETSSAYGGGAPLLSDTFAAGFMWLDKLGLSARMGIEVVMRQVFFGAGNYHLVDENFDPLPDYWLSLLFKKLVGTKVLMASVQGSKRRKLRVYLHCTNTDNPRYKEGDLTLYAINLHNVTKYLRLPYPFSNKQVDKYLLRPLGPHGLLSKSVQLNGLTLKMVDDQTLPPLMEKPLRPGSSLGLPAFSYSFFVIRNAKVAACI
The description is as above. As to the method: as §1
For the molecule B1, the “OD, binding to heparanase (Human)” value is 0.19 OD units.

With B2, the “OD, binding to heparanase (Human)” value worked out at 0.61 OD units.

Turning to B3, the “OD, binding to heparanase (Human)” value came out at 1.08 OD units.

In the case of B4, the “OD, binding to heparanase (Human)” value stood at 0.68 OD units.

As to B5, the “OD, binding to heparanase (Human)” value came out at 0.21 OD units.

In the case of B6, the “OD, binding to heparanase (Human)” value worked out at 0.63 OD units.

Regarding B7, the “OD, binding to heparanase (Human)” value was 1.84 OD units.

Another assay deals with T1, recombinant human heparanase (active, 8 …). The assay can be described thus: medium resolution Biacore, antibody captured on goat anti-human antibody CM4 chip, recombinant Hpa1 at 1 nM and 10 nM, 25 C, 1:1 model with mass transport. As to the method: For medium resolution Biacore™ tests, cloned and purified antibodies were used. Each of three purified antibodies (10E9.1, 15A1.2, and 15A11.1) were captured onto a high-density goat anti-human antibody surface over a CM4 Biacore™ chip. Recombinant Hpa1 was diluted to the desired concentration (1 nM and 10 nM) in 10 mM HEPES, 150 mM NaCl, 0.005% tween-20, 0.1 mg per ml BSA pH7.4 (25° C.) immediately prior to injection. Data were fit globally to a 1:1 interaction model with a term for mass transport included. The resulting KD values are summarised below in Table 4.
Regarding B1, the Kd turned out to be 0.056 nM, the koff was found to be 0.000105 s⁻¹ and the kon stood at 1.88e+06 M⁻¹ s⁻¹.

On to B5, for which the Kd came out at 0.056 nM, the koff is 0.000309 s⁻¹ and the kon stood at 3.6e+06 M⁻¹ s⁻¹.

Consider B6, for which the Kd is 0.0545 nM, the koff worked out at 0.000112 s⁻¹ and the kon amounted to 2.06e+06 M⁻¹ s⁻¹.
